# Measured values as given in patent US20220041709A1 (MITSUBISHI TANABE PHARMA, published 2022).
# B1: human anti-IL-33 monoclonal antibody A10-1C04 (antibody, human IgG1, lambda, V domains shown)
# VH: EVQLLESGGGLVQPGGSLRLSCAASGFTFSDYYMNWVRQAPGKGLEWVSSISRYSSYIYYADSVKGRFTISRDNSKNTLYLQMNSLRAEDTAVYYCARDIGGMDVWGQGTLVTVSS
# VL: QSVLTQPPSASGTPGQRVTISCTGSSSNIGAVYDVHWYQQLPGTAPKLLIYRNNQRPSGVPDRFSGSKSGTSASLAISGLRSEDEADYYCQTYDSSRWVFGGGTKLTVLG
# notes: Detected with anti-human IgG antibody in the ELISA
# Experiments:
# [1] = biological target: T1, Human IL-33 (human, UniProt O95760 112-270, limits assumed); experiment: ELISA on plate-coated human IL-33, HRP anti-human IgG detection; 10 mg/mL formulation, 2 to 8 C, T0
# T1 construct: also called NF-HEV
# T1 sequence (looked up): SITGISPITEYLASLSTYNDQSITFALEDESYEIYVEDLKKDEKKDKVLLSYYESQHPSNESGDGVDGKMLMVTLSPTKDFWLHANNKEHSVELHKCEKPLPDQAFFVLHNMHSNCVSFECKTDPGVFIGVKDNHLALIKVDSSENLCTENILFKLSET
# Procedure: (§1) Compositions of 10 mg/mL of each human anti-IL-33 monoclonal antibody (A10-1C04, A23-1A05, A25-2C02, A25-3H04 or A26-1F02) were prepared with 10 mM histidine/pH 6/0.02% (w/v) polysorbate 80/3.6% (w/v) sorbitol, and then each filled into a glass vial and sealed with a halogenated butyl rubber stopper, and stored for 1, 2 and 3 years at a temperature of 2 to 8° C. as a long-term stability test. The presence or absence of aggregation was confirmed by visual examination for 5 seconds each under a 2000 to 3750 Lux fluorescent lamp, against white and black board backgrounds. The binding activity was evaluated by the following method. Human IL-33 was added to a 96-well plate and allowed to form a solid phase overnight. BSA was used for blocking, and then the sample solution was added to each well, reacted with HRP-labeled anti-human IgG antibody and colored with TMB. The absorbance at 450 nm and 650 nm was then measured with a plate reader (Molecular Devices Corp.) to determine the EC50 value. The EC50 value of the standard solution was also determined in the same manner, and the ratio was calculated.
# [2] = biological target: T1, Human IL-33; experiment: ELISA on plate-coated human IL-33, HRP anti-human IgG detection; 150 mg/mL formulation, 2 to 8 C, T0
# Procedure: The presence or absence of aggregation was confirmed by visual examination for 5 seconds each under a 2000 to 3750 Lux fluorescent lamp, against white and black board backgrounds. The binding activity was evaluated by the following method. Human IL-33 was added to a 96-well plate and allowed to form a solid phase overnight. BSA was used for blocking, and then the sample solution was added to each well, reacted with HRP-labeled anti-human IgG antibody and colored with TMB. The absorbance at 450 nm and 650 nm was then measured with a plate reader (Molecular Devices Corp.) to determine the EC50 value. The EC50 value of the standard solution was also determined in the same manner, and the ratio was calculated.
# (§2) Compositions of 150 mg/mL of each human anti-IL-33 monoclonal antibody (A10-1C04, A23-1A05, A25-2C02, A25-3H04 or A26-1F02) were prepared with 10 mM histidine/pH 6/0.02% (w/v) polysorbate 80/4.0% (w/v) sorbitol, and then each was filled into a glass vial and sealed with a halogenated butyl rubber stopper, and stored for 3 and 6 months at a temperature of 2 to 8° C. as a long-term stability test. The evaluation was conducted by the same method as Example 14.
# [3] = biological target: T1, Human IL-33; experiment: ELISA on plate-coated human IL-33, HRP anti-human IgG detection; 10 mg/mL formulation stored 1 year at 2 to 8 C
# Procedure: as §1
# [4] = biological target: T1, Human IL-33; experiment: ELISA on plate-coated human IL-33, HRP anti-human IgG detection; 10 mg/mL formulation stored 2 years at 2 to 8 C
# Procedure: as §1
# [5] = biological target: T1, Human IL-33; experiment: ELISA on plate-coated human IL-33, HRP anti-human IgG detection; 10 mg/mL formulation stored 3 years at 2 to 8 C
# Procedure: as §1
# [6] = biological target: T1, Human IL-33; experiment: ELISA on plate-coated human IL-33, HRP anti-human IgG detection; 150 mg/mL formulation stored 3 months at 2 to 8 C
# Procedure: as §1, with “monoclonal” for “Compositions of 10 mg/mL of each human anti-IL-33 monoclonal”, “and stored for 1, 2 and 3 years at a temperature of 2 to” left out
# as §2, with “The evaluation was conducted by the same method as Example 14.” left out
# [7] = biological target: T1, Human IL-33; experiment: ELISA on plate-coated human IL-33, HRP anti-human IgG detection; 150 mg/mL formulation stored 6 months at 2 to 8 C
# Procedure: as §1, with “monoclonal” for “Compositions of 10 mg/mL of each human anti-IL-33 monoclonal”, “and stored for 1, 2 and 3 years at a temperature of 2 to” left out
# as §2, with “The evaluation was conducted by the same method as Example 14.” left out
binder,measurement,setting,value
B1,Binding activity (ratio of EC50 to that of the standard solution),[1],100%
same,Binding activity (ratio of EC50 to that of the standard solution),[2],115%
same,Binding activity (ratio of EC50 to that of the standard solution),[3],110%
same,Binding activity (ratio of EC50 to that of the standard solution),[4],101%
same,Binding activity (ratio of EC50 to that of the standard solution),[5],101%
same,Binding activity (ratio of EC50 to that of the standard solution),[6],110%
same,Binding activity (ratio of EC50 to that of the standard solution),[7],100%
